Data as given in PMC4989188, “Identification and characterization of chromosomal relBE toxin-antitoxin locus in Streptomyces cattleya DSM46488” (Scientific Reports, 2016).

Biological target: T1, RelE2sca-His6 toxin (SCATT_39270) of Streptomyces cattleya DSM 46488 (Streptomyces cattleya DSM 46488, UniProt F8K3H9 1-87)
T1 construct: also called toxin RelE2sca; not shown: His6, N-terminal, kept
T1 sequence (looked up): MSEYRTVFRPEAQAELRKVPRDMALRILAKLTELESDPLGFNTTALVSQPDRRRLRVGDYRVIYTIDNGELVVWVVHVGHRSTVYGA
Experiment: SEC
Details: both partners purified

B1: RelB2sca antitoxin (SCATT_39280) of Streptomyces cattleya DSM 46488 (natural protein, UniProt G8WSR4 1-89, looked up)
chain: MTQPLPMESIRDVRAHLAEVVERADRDDVPTVITRRGKQVAAVVSIEVLRKYQEWEEREINRIIDERMANPTPGVPIEDIMRETLARSE
notes: Untagged in the co-purification; Copies 2 are those in the 2:2 complex with RelE2sca-His6; In the functional row the protein was expressed from pBAD-relB2sca-relEeco in E. coli MGJ5987; also called antitoxin RelB2sca; RelBsca; source: E. coli BL21(DE3), co-expressed with RelE2sca-His6 from pACYC-relB2sca-relE2scahis, co-purified on NTA-Ni resin
stoichiometry N: 1 RelB2sca per RelE2sca-His6 (printed as 2:2)
